Experimental data reported in the supplement of paper PMC10567573.

B1: EHMT1 (parent)
chain: FHKDCASRVNNASYCPHCGEESSK

Variants of: B1
Experiment: protein stability index of a GFP-peptide fusion (GPS, HEK-293T) (PSI 1-6); higher = more stable
Details: c terminus: a fixed tail appended
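Note: lentivirally expressed fusions sorted by FACS into six bins by GFP to DsRed ratio, PSI derived from sequencing read proportions per bin multiplied by bin number.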

Variant	protein stability index
FHADCASRVNNASYCPHCGEESSK	2.58
FHYDCASRVNNASYCPHCGEESSK	2.61
FHTDCASRVNNASYCPHCGEESSK	2.45
FHQDCASRVNNASYCPHCGEESSK	2.27
FHHDCASRVNNASYCPHCGEESSK	2.9
FHWDCASRVNNASYCPHCGEESSK	1.78
FHEDCASRVNNASYCPHCGEESSK	3.83
FHNDCASRVNNASYCPHCGEESSK	2.69
FHFDCASRVNNASYCPHCGEESSK	1.92
FHCDCASRVNNASYCPHCGEESSK	4.57
FHSDCASRVNNASYCPHCGEESSK	2.01
FHVDCASRVNNASYCPHCGEESSK	2.92
FHIDCASRVNNASYCPHCGEESSK	2.7
FHDDCASRVNNASYCPHCGEESSK	3.47
FHPDCASRVNNASYCPHCGEESSK	2.22
FHLDCASRVNNASYCPHCGEESSK	2.57
FHRDCASRVNNASYCPHCGEESSK	2.57
FHGDCASRVNNASYCPHCGEESSK	2.73
FHMDCASRVNNASYCPHCGEESSK	2.29
FHKVCASRVNNASYCPHCGEESSK	2.41
FHKNCASRVNNASYCPHCGEESSK	3.3
FHKKCASRVNNASYCPHCGEESSK	2.59
FHKPCASRVNNASYCPHCGEESSK	1.88
FHKGCASRVNNASYCPHCGEESSK	2.56

Variant	protein stability index
FHKYCASRVNNASYCPHCGEESSK	2.02
FHKRCASRVNNASYCPHCGEESSK	2.3
FHKWCASRVNNASYCPHCGEESSK	1.96
FHKMCASRVNNASYCPHCGEESSK	1.83
FHKHCASRVNNASYCPHCGEESSK	2.84
FHKACASRVNNASYCPHCGEESSK	3.16
FHKLCASRVNNASYCPHCGEESSK	2
FHKICASRVNNASYCPHCGEESSK	2.56
FHKSCASRVNNASYCPHCGEESSK	3.12
FHKTCASRVNNASYCPHCGEESSK	2.47
FHKCCASRVNNASYCPHCGEESSK	4.12
FHKFCASRVNNASYCPHCGEESSK	2.04
FHKQCASRVNNASYCPHCGEESSK	2.73
FHKECASRVNNASYCPHCGEESSK	3.55
FVKDCASRVNNASYCPHCGEESSK	1.96
FTKDCASRVNNASYCPHCGEESSK	3
FSKDCASRVNNASYCPHCGEESSK	3.1
FPKDCASRVNNASYCPHCGEESSK	3.37
FMKDCASRVNNASYCPHCGEESSK	3.45
FWKDCASRVNNASYCPHCGEESSK	2.62
FYKDCASRVNNASYCPHCGEESSK	3.69
FQKDCASRVNNASYCPHCGEESSK	3.1
FNKDCASRVNNASYCPHCGEESSK	4.18
FRKDCASRVNNASYCPHCGEESSK	3.65

Variant	protein stability index
FHKDCPSRVNNASYCPHCGEESSK	3.83
FHKDCWSRVNNASYCPHCGEESSK	1.96
FHKDCDSRVNNASYCPHCGEESSK	3.52
FHKDCKSRVNNASYCPHCGEESSK	3.53
FHKDCNSRVNNASYCPHCGEESSK	3.41
FHKDCHSRVNNASYCPHCGEESSK	3.34
FHKDCCSRVNNASYCPHCGEESSK	4.35
FHKDCVSRVNNASYCPHCGEESSK	3.5
FHKDCQSRVNNASYCPHCGEESSK	4.04
FHKDCFSRVNNASYCPHCGEESSK	2.28
FHKDCSSRVNNASYCPHCGEESSK	3.52
FHKDCGSRVNNASYCPHCGEESSK	3.59
FHKDCYSRVNNASYCPHCGEESSK	2.26
FHKDCTSRVNNASYCPHCGEESSK	3.6
FHKDCRSRVNNASYCPHCGEESSK	2.97
FHKDCLSRVNNASYCPHCGEESSK	2.85
FHKDCMSRVNNASYCPHCGEESSK	3.07
FHKDCISRVNNASYCPHCGEESSK	3.23
FHKDCESRVNNASYCPHCGEESSK	3.6
FHKDCAARVNNASYCPHCGEESSK	3.71
FHKDCAGRVNNASYCPHCGEESSK	3.47
FHKDCAFRVNNASYCPHCGEESSK	2.16
FHKDCACRVNNASYCPHCGEESSK	4.27
FHKDCAHRVNNASYCPHCGEESSK	4.18

Variant	protein stability index
FHKDCAIRVNNASYCPHCGEESSK	3.54
FHKDCAERVNNASYCPHCGEESSK	3.54
FHKDCADRVNNASYCPHCGEESSK	3.23
FHKDEASRVNNASYCPHCGEESSK	2.82
FHKDWASRVNNASYCPHCGEESSK	2.55
FHKDLASRVNNASYCPHCGEESSK	2.4
FHKDMASRVNNASYCPHCGEESSK	2.46
FHKDRASRVNNASYCPHCGEESSK	2.36
FHKDIASRVNNASYCPHCGEESSK	2.42
FHKDHASRVNNASYCPHCGEESSK	2.3
FHKDTASRVNNASYCPHCGEESSK	2.25
FHKDQASRVNNASYCPHCGEESSK	2.25
FHKDFASRVNNASYCPHCGEESSK	2.72
FHKDNASRVNNASYCPHCGEESSK	2.61
FHKDGASRVNNASYCPHCGEESSK	2.52
FHKDSASRVNNASYCPHCGEESSK	2.56
FHKDAASRVNNASYCPHCGEESSK	2.53
FHKDPASRVNNASYCPHCGEESSK	1.77
FHKDKASRVNNASYCPHCGEESSK	2.13
FHKDYASRVNNASYCPHCGEESSK	2.25
FHKDVASRVNNASYCPHCGEESSK	2.59
FHKDDASRVNNASYCPHCGEESSK	3.19
